Experimental data: patent US20110189205A1

Key:
[1] = target: CGRP receptor on human MDA-MB-231BR breast cancer cells (human) (UniProt Q16602); assay: cell-based or functional assay
[2] = target: CGRP receptor on rat CNS1 glioma cells (rat) (UniProt Q63118); assay: cell-based or functional assay
Sequence of CGRP receptor on rat CNS1 glioma cells (rat) (Q63118 24-464, chain 1 of 2): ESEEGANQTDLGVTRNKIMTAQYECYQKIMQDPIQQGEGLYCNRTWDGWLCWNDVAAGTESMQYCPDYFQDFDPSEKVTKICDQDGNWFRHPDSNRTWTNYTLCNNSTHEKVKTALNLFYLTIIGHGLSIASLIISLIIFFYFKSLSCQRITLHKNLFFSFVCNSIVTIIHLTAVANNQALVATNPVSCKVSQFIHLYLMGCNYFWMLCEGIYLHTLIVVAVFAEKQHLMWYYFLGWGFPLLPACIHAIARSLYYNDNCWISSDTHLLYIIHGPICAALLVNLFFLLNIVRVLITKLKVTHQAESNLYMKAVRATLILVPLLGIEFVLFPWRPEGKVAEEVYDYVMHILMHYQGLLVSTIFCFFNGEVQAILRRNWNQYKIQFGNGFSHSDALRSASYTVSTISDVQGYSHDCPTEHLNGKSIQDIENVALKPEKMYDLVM
Sequence of CGRP receptor on rat CNS1 glioma cells (rat) (Q9JJ74 27-148, chain 2 of 2, further chain): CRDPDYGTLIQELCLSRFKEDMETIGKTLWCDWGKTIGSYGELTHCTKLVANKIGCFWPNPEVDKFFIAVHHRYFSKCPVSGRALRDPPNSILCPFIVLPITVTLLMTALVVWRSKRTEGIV

Sequence of CGRP receptor on human MDA-MB-231BR breast cancer cells (human) (Q16602 23-461, chain 1 of 2): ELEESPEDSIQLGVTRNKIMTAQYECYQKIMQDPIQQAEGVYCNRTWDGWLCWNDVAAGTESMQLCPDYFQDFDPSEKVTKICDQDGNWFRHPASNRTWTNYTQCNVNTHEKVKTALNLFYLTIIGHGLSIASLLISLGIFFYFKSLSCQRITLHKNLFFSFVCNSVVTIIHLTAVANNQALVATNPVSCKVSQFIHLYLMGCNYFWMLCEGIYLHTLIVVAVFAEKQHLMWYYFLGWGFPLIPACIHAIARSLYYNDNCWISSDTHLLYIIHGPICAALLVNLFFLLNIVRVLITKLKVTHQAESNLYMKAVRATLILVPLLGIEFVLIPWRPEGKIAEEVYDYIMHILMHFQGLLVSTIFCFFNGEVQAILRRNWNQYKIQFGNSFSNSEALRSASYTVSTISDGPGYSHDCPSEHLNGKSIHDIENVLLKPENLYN
Sequence of CGRP receptor on human MDA-MB-231BR breast cancer cells (human) (O60894 27-148, chain 2 of 2, further chain): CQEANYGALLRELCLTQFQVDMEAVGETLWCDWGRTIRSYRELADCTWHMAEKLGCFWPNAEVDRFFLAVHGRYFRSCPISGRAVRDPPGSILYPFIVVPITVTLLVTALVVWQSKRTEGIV

MDA-MB-231BR cell growth over control, normoxic conditions, 4 days in culture [1]: 6 fold
CNS1 cell growth over control, normoxic conditions, 4 days in culture [2]: 4 fold
CNS1 cell growth over control, normoxic conditions, 5 days in culture [2]: 11 fold
CNS1 glioma growth over control, hypoxic conditions, 4 days in culture [2]: 72 fold
CNS1 glioma growth over control, hypoxic conditions, 5 days in culture [2]: 10 fold
Substance: calcitonin gene-related peptide (CGRP), unlabeled (from UniProt P01256 83-119)
